Measured values from patent publication US20250177531A1 (FRED HUTCHINSON CANCER CENTER, published 2025).

Columns and labels:
[1] = target: KRAS G12V 8-16 9mer peptide … presented by HLA-A*11:01 (human); test: cell-based or functional assay
[2] = target: KRAS G12V 7-16 10mer peptide … presented by HLA-A*11:01 (human); test: cell-based or functional assay
[3] = target: RAB7B peptide … presented by HLA-A*11:01 (human); test: cell-based or functional assay
[4] = target: T1, KRAS G12V (same sequence in NRAS G12V and HRAS G12V) peptide on HLA-A*11:01 (human); test: stated without data
T1 peptide: VVGAVGVGK

B1: TCR 11N4A (TCR)
TCR alpha: QQKNDDQQVKQNSPSLSVQEGRISILNCDYTNSMFDYFLWYKKYPAEGPTFLISISSIKDKNEDGRFTVFLNKSAKHLSLHIVPSQPGDSAVYFCAASGVSGNTPLVFGKGTRLSVIANIQNPDPAVYQLRDSKSSDKSVCLFTDFDSQTNVSQSKDSDVYITDKCVLDMRSMDFKSNSAVAWSNKSDFACANAFNNSIIPEDTFFPSPESSCDVKLVEKSFETDTNLNFQNLSVIGFRILLLKVAGFNLLMTLRLWSS
TCR beta: GVTQTPRYLIKTRGQQVTLSCSPISGHRSVSWYQQTPGQGLQFLFEYFSETQRNKGNFPGRFSGRQFSNSRSEMNVSTLELGDSALYLCASSVGTVEQYFGPGTRLTVTEDLKNVFPPEVAVFEPSEAEISHTQKATLVCLATGFYPDHVELSWWVNGKEVHSGVCTDPQPLKEQPALNDSRYCLSSRLRVSATFWQNPRNHFRCQVQFYGLSENDEWTQDRAKPVTQIVSAEAWGRADCGFTSESYQQGVLSATILYEILLGKATLYAVLVSALVLMAMVKRKDSRG
EC50, CD137 surface expression assay (functional avidity), TCR 11N4A in primary human CD8+ T cells [1]: 0.0595 nM | percent of T cells responding (CD137), peptide titration [1]: > 80% | EC50, CD137 surface expression assay (functional avidity), TCR 11N4A in primary human CD8+ T cells [2]: 18.8 nM

B2: TCR 11N4A (TCR, V domains shown)
V domain 1: DQQVKQNSPSLSVQEGRISILNCDYTNSMFDYFLWYKKYPAEGPTFLISISSIKDKNEDGRFTVFLNKSAKHLSLHIVPSQPGDSAVYFCAASGVSGNTPLVFGKGTRLSVIA
V domain 2: GVTQTPRYLIKTRGQQVTLSCSPISGHRSVSWYQQTPGQGLQFLFEYFSETQRNKGNFPGRFSGRQFSNSRSEMNVSTLELGDSALYLCASSVGTVEQYFGPGTRLTVTE
EC50, CD137 expression, sort-purified TCR 11N4A-transduced T cells, peptide titration [3]: ~35 µg/mL

B3: TCR 11N6 (TCR, V domains shown)
Valpha: QQGEEDPQALSIQEGENATMNCSYKTSINNLQWYRQNSGRGLVHLILIRSNEREKHSGRLRVTLDTSKKSSSLLITASRAADTASYFCATDPMNTNAGKSTFGDGTTLTVKP
Vbeta: GVAQSPRYKIIEKRQSVAFWCNPISGHATLYWYQQILGQGPKLLIQFQNNGVVDDSQLPKDRFSAERLKGVDSTLKIQPAKLEDSAVYLCASSPYGGSVSYEQYFGPGTRLTVT
binding result [4]: recognises
